Source: patent US20220073631A1 (QYUNS THERAPEUTICS, published 2022)
Positions count from the first letter of the chain named.

Columns and labels:
Assay in all cases: SPR, Biacore T200, by the methods of Example 2
[1] = biological target: T1, extracellular domain of marmoset IL-4Rα (Gly 24-His 232) with C-terminus his-tag (marmoset)
T1 construct: range 24-232; Made in HEK 293F cells and purified on nickel

hIL-4Rα-Mu240 = biological target: T2, hIL-4Rα-Mu240 (human, UniProt P24394 26-232)
T2 construct: Printed positions fit the mature protein; also called D66A/D67A/V68R; not shown: C-terminal his-tag
T2 chain: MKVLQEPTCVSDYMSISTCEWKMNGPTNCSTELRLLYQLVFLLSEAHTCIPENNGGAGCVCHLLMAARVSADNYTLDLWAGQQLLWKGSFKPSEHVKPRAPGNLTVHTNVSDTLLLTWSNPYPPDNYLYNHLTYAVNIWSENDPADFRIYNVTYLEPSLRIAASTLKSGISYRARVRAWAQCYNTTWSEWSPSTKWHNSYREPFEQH
Experimental: (§1) The protein A was chemically coupled to a CM5 chip, and an appropriate amount of the antibody was immobilized by a capture method such that the Rmax was less than 50 RU and the flow rate for the capture was 10 μl/min. The antigen was subject to gradient dilution, and the flow rate in the instrument was switched to 30 μl/min. The antigen was flowed through the reference channel and the channel with the immobilized antibody sequentially in an ascending order of concentration, and the running buffer was flowed through as a negative control. After each binding and dissociation was complete, the chip was regenerated with glycine, pH 1.5. Fitting was performed with the build-in software in the instrument according to a 1:1 binding model. The binding rate constant kₐ, the dissociation rate constant kd, and the equilibrium dissociation constant KD values of the antibody were calculated. Dupilumab was obtained by purchasing a commercially available medicine.
(§2) To further narrow down the key amino acids that PD2-31 binds to, multiple mutants of hIL-4Rα were designed in Loop 2 (V40FLLSEA46) and Loop 3 (M65[…]73) (Table 2). The wild-type hIL-4Rα (hIL-4Rα-ECD) and hIL-4Rα mutants were prepared using standard techniques. Briefly, the expression plasmids containing the extracellular domain of wild-type hIL-4Rα and different mutated hIL-4Rα were constructed and transfected into HEK 293F cells. After expression, the extracellular domain of wild-type hIL-4Rα and hIL-4Rα mutants with C-terminus his-tag were purified by Nickel chromatography. Purified proteins of wild-type hIL-4Rα and hIL-4Rα mutants were analyzed for interaction with PD2-31 and Dupilumab. The interaction was studied by Biacore T200, according to the methods in Example 2.

hIL-4Rα-Mu239 = biological target: T3, hIL-4Rα-Mu239 (human, UniProt P24394 26-232)
T3 construct: Printed positions fit the mature protein; also called M65I/D66A/D67A; not shown: C-terminal his-tag
T3 chain: T2 chain with M65I, R68V
Experimental: as §1, §2

hIL-4Rα-Mu244 = biological target: T4, hIL-4Rα-Mu244 (human, UniProt P24394 26-232)
T4 construct: Printed positions fit the mature protein; also called S70Q/A71L/D72R; not shown: C-terminal his-tag
T4 chain: T2 chain with A66D, A67D, R68V, S70Q, A71L, D72R
Experimental: as §1, §2

hIL-4Rα-Mu243 = biological target: T5, hIL-4Rα-Mu243 (human, UniProt P24394 26-232)
T5 construct: Printed positions fit the mature protein; also called V69F/S70Q/A71L; not shown: C-terminal his-tag
T5 chain: T2 chain with A66D, A67D, R68V, V69F, S70Q, A71L
Experimental: as §1, §2

hIL-4Rα-Mu241 = biological target: T6, hIL-4Rα-Mu241 (human, UniProt P24394 26-232)
T6 construct: Printed positions fit the mature protein; also called D67A/V68R/V69F; not shown: C-terminal his-tag
T6 chain: T2 chain with A66D, V69F
Experimental: as §1, §2

hIL-4Rα-Mu245 = biological target: T7, hIL-4Rα-Mu245 (human, UniProt P24394 26-232)
T7 construct: Printed positions fit the mature protein; also called A71L/D72R/N73A; not shown: C-terminal his-tag
T7 chain: T2 chain with A66D, A67D, R68V, A71L, D72R, N73A
Experimental: as §1, §2

hIL-4Rα-Mu453 = biological target: T8, hIL-4Rα-Mu453 (human, UniProt P24394 26-232)
T8 construct: Printed positions fit the mature protein; also called D66A/D67A; not shown: C-terminal his-tag
Experimental: as §1, §2

- Kd [1]: ~100 pM
- Kd (hIL-4Rα-Mu240): 750 pM
- koff (hIL-4Rα-Mu240): 5.23e-05 s⁻¹
- kon (hIL-4Rα-Mu240): 69800 M⁻¹ s⁻¹
- Kd (hIL-4Rα-Mu239): 163 pM
- koff (hIL-4Rα-Mu239): 2.71e-05 s⁻¹
- kon (hIL-4Rα-Mu239): 166000 M⁻¹ s⁻¹
- Kd (hIL-4Rα-Mu244): 1100 pM
- koff (hIL-4Rα-Mu244): 0.000104 s⁻¹
- kon (hIL-4Rα-Mu244): 94500 M⁻¹ s⁻¹
- Kd (hIL-4Rα-Mu243): 131 pM
- koff (hIL-4Rα-Mu243): 9.45e-05 s⁻¹
- kon (hIL-4Rα-Mu243): 723000 M⁻¹ s⁻¹
- Kd (hIL-4Rα-Mu241): 474 pM
- koff (hIL-4Rα-Mu241): 6.59e-05 s⁻¹
- kon (hIL-4Rα-Mu241): 139000 M⁻¹ s⁻¹
- Kd (hIL-4Rα-Mu245): 1450 pM
- koff (hIL-4Rα-Mu245): 0.00029 s⁻¹
- kon (hIL-4Rα-Mu245): 201000 M⁻¹ s⁻¹
- Kd (hIL-4Rα-Mu453): 663 pM
- koff (hIL-4Rα-Mu453): 0.000118 s⁻¹
- kon (hIL-4Rα-Mu453): 178000 M⁻¹ s⁻¹
B1: QX005N (PD2-31) (antibody, V domains shown)
VH: EVQLVESGGGLVQPGGSLRLSCAASGIDLRTNSMSWVRQAPGKGLEWVGIIGSSGYMDYASWAKGRFTISRDNSKNTLYLQMNSLRAEDTAVYYCARHGDSSSFALWGQGTLVTVSS
VL: DIQMTQSPSSLSASVGDRVTITCRASESVYKNNRLSWYQQKPGKAPKLLIYEASKVASGVPSRFSGSGSGTDFTLTISSLQPEDFATYYCAGAYRGNIYPFGQGTKVEIK
notes: Humanized from rabbit clone #2, expressed as a full antibody in ExpiCHO-S cells (heavy chain 48.5 kDa, light chain 23.7 kDa)
